The values below come from publication PMC5940254 (The Journal of General Physiology, 2018).

Holding throughout (experiment): single-molecule pull-down
The target in series [1] is Ci-VSP voltage-sensing domain only protein (VSDo) (Ciona intestinalis).
Series [2] shares this target. This is another data set of the same source.
The target in series [3] is Ci-VSP phosphatase-only protein (PDo) (Ciona intestinalis).
Series [4] shares this target. The source holds these as a separate data set.
Series [5] concerns the molecule itself.

Like-named read-outs stand apart in the source and are kept apart here.

The term stoichiometry N denotes a count of units in the complex or per binding partner. Take “Ci-VSP voltage-sensing domain only protein (VSDo) (domain or fragment)”: in series [1], the percent of spots bleaching in a single step was found to be 65% and the stoichiometry N stood at 2. In series [2], this molecule showed a percent of spots bleaching in a single step of 37% and a percent of spots bleaching in two steps of 55%.

Take “Ci-VSP phosphatase-only protein (PDo) (domain or fragment)”: in series [3], the percent of spots bleaching in a single step was 80% and the stoichiometry N was 2. Further, in series [4], the percent of spots bleaching in a single step is 57% and the percent of spots bleaching in two steps was 34%.

B1: ASIC1A channel, HA- and GFP-tagged (trimer control) (natural protein)
chain: MELKTEEEEVGGVQPVSIQAFASSSTLHGLAHIFSYERLSLKRALWALCFLGSLAVLLCVCTERVQYYFCYHHVTKLDEVAASQLTFPAVTLCNLNEFRFSQVSKNDLYHAGELLALLNNRYEIPDTQMADEKQLEILQDKANFRSFKPKPFNMREFYDRAGHDIRDMLLSCHFRGEACSAEDFKVVFTRYGKCYTFNSGQDGRPRLKTMKGGTGNGLEIMLDIQQDEYLPVWGETDETSFEAGIKVQIHSQDEPPFIDQLGFGVAPGFQTFVSCQEQRLIYLPSPWGTCNAVTMDSDFFDSYSITACRIDCETRYLVENCNCRMVHMPGDAPYCTPEQYKECADPALDFLVEKDQEYCVCEMPCNLTRYGKELSMVKIPSKASAKYLAKKFNKSEQYIGENILVLDIFFEVLNYETIEQKKAYEIAGLLGDIGGQMGLFIGASILTVLELFDYAYEVIKHRLCRRGKCQKEAKRSSADKGVALSLDDVKRHNPCESLRGHPAGMTYAANILPHHPARGTFEDFTC
B1: the “stoichiometry N” value in series [5] worked out at 3.

B2: TREK1 channel, HA- and/or GFP-tagged (dimer and monomer controls) (natural protein)
chain: MLASASRERPGYTAGVAAPDLLDPKSAAQNSKPRLSFSSKPTVLASRVESDSAINVMKWKTVSTIFLVVVLYLIIGATVFKALEQPQEISQRTTIVIQKQTFIAQHACVNSTELDELIQQIVAAINAGIIPLGNSSNQVSHWDLGSSFFFAGTVITTIGFGNISPRTEGGKIFCIIYALLGIPLFGFLLAGVGDQLGTIFGKGIAKVEDTFIKWNVSQTKIRIISTIIFILFGCVLFVALPAVIFKHIEGWSALDAIYFVVITLTTIGFGDYVAGGSDIEYLDFYKPVVWFWILVGLAYFAAVLSMIGDWLRVISKKTKEEVGEFRAHAAEWTANVTAEFKETRRRLSVEIYDKFQRATSVKRKLSAELAGNHNQELTPCRRTLSVNHLTSEREVLPPLLKAESIYLNGLTPHCAGEDIAVIENMK
As to B2, the “stoichiometry N” value in series [5] was determined as 2.
